B1: Cr-DapL (Chlamydomonas reinhardtii) (protein)
chain: MQLNVRSTASGARSSTRSRRMTAVVQAVAQRAGTIDVQRNENFGKLRAGYLFPEIARRRKAHQEKNPDAKIISLGIGDTTEPLPKYIADAMAKAAAGLATREGYSGYGAEQGQGALREAVASTFYGHAGRAADEIFISDGSKCDIARIQMMFGSKPTVAVQDPSYPVYVDTSVMMGMTGDHNGTGFDGIEYMVCNPDNHFFPDLSKAKRTDIIFFCSPNNPTGAAATRAQLTELVNFARKNGSILVYDAAYALYISNPDCPKTIYEIPGADEVAIETCSFSKYAGFTGVRLGWTVVPKALKYANGEPVHADWNRVMTTCFNGASNIVQAGGLACLQPEGLKEMNAMIKFYKENAQILKTTFTEMGFSVYGGDDAPYIWVGFPGKPSWDVFAEILERCNIVTTPGSGFGPAGEGFVRASAFGSRENILEAVRRFKEAYGKRN
notes: monomeric mass 48,830 Da; dimer; EC 2.6.1.83

What was measured:
[1] = biological target: L,L-diaminopimelate aminotransferase from Chlamydomonas reinhardtii (Chlamydomonas reinhardtii); assay: AUC; sedimentation velocity, 9.2 µM (0.45 mg/mL) Cr-DapL, 20 °C, 50 mM HEPES, 0.5 mM DTT, 1 mM EDTA, 50 mM NaCl pH 8.0, 45,000 rpm; c(s) and c(M) distributions in SEDFIT
purified protein [2] = substrate: N[C@@H](CCC(=O)O)C(=O)O; assay: purified protein; type: biochemical, Chlamydomonas reinhardtii; settings: forward direction, amino donor, saturating THDPA generated in situ from meso-DAP by C. glutamicum Ddh, 100 mM HEPES-KOH pH 7.6
purified protein [3] = substrate: N[C@@H](CCC[C@H](N)C(=O)O)C(=O)O; assay: purified protein; type: biochemical, Chlamydomonas reinhardtii; settings: reverse direction, amino donor, saturating 2-oxoglutarate, 0.3 mM NADPH, 50 mM NH4Cl, 100 mM HEPES-KOH pH 7.6, 30 °C
purified protein [4] = substrate: O=C(O)C1=N[C@H](C(=O)O)CCC1; assay: purified protein; type: biochemical, Chlamydomonas reinhardtii; settings: forward direction, co-substrate glutamate 5.0 mM, THDPA generated in situ from meso-DAP by C. glutamicum Ddh with NADP, 100 mM HEPES-KOH pH 7.6
purified protein [5] = substrate: O=C(O)CCC(=O)C(=O)O; assay: purified protein; type: biochemical, Chlamydomonas reinhardtii; settings: reverse direction, amino acceptor, saturating L,L-DAP, 0.3 mM NADPH, 50 mM NH4Cl, 100 mM HEPES-KOH pH 7.6, 30 °C

stoichiometry N [1]	Molecule	Km (purified protein [2]) [µM]	kcat (purified protein [2]) [s⁻¹]	Km (purified protein [3]) [µM]	Vmax (purified protein [3]) [µmol/min/mg]	kcat (purified protein [3]) [s⁻¹]	Km (purified protein [4]) [µM]	Vmax (purified protein [4]) [µmol/min/mg]	kcat (purified protein [4]) [s⁻¹]	Km (purified protein [5]) [µM]	kcat (purified protein [5]) [s⁻¹]
2	L,L-diaminopimelate aminotransferase from Chlamydomonas reinhardtii (enzyme)										
	B1	900 ± 400	1.1	300 ± 20	11.6	19	100 ± 10	0.68	1.1	2200 ± 700	19.0

— article PMC3102117, “L,L-Diaminopimelate Aminotransferase from Chlamydomonas reinhardtii: A Target for Algaecide Development” (PLoS ONE, 2011)
